According to publication PMC3044229:
Where two headings read alike, the source gives them in different places.

T1: GST-ABP9 (Zea mays, UniProt D2KNW6 1-385)
T1 sequence: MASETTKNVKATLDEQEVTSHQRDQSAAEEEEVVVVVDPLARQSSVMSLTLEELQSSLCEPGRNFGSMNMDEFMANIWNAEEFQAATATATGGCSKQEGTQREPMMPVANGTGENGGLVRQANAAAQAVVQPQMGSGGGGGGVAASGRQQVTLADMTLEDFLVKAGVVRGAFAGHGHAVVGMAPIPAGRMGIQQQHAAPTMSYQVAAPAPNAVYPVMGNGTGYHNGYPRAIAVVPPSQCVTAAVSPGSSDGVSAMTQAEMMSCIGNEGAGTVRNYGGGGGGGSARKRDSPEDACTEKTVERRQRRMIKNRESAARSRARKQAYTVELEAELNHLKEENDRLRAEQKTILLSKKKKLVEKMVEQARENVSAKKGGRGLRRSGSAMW


Columns and labels:
GST-ABP9 [1] = molecular target: T1, GST-ABP9; assay: EMSA
GST-ABP9 [2] = molecular target: T1, GST-ABP9; assay: EMSA; remark: listed apart in the source

Row | Binder | binding result (GST-ABP9 [1]) | binding result (GST-ABP9 [2])
1 | ABRE2 (dsDNA) DNA 1: GAAGTCCACGTGGAGGTGG DNA 2: CCACCTCCACGTGGACTTC | binds | –
2 | mABRE2 (dsDNA) DNA 1: GAAGTAACATGTTCGGTGG DNA 2: CCACCGAACATGTTACTTC | – | no binding
